{"source": "IntAct's records for PubMed 19909340", "parents": {"B1": {"name": "Broad substrate specificity ATP-binding cassette transporter ABCG2 (Homo sapiens), Q9UNQ0 (parent)", "chain": "MSSSNVEVFIPVSQGNTNGFPATASNDLKAFTEGAVLSFHNICYRVKLKSGFLPCRKPVEKEILSNINGIMKPGLNAILGPTGGGKSSLLDVLAARKDPSGLSGDVLINGAPRPANFKCNSGYVVQDDVVMGTLTVRENLQFSAALRLATTMTNHEKNERINRVIQELGLDKVADSKVGTQFIRGVSGGERKRTSIGMELITDPSILFLDEPTTGLDSSTANAVLLLLKRMSKQGRTIIFSIHQPRYSIFKLFDSLTLLASGRLMFHGPAQEALGYFESAGYHCEAYNNPADFFLDIINGDSTAVALNREEDFKATEIIEPSKQDKPLIEKLAEIYVNSSFYKETKAELHQLSGGEKKKKITVFKEISYTTSFCHQLRWVSKRSFKNLLGNPQASIAQIIVTVVLGLVIGAIYFGLKNDSTGIQNRAGVLFFLTTNQCFSSVSAVELFVVEKKLFIHEYISGYYRVSSYFLGKLLSDLLPMRMLPSIIFTCIVYFMLGLKPKADAFFVMMFTLMMVAYSASSMALAIAAGQSVVSVATLLMTICFVFMMIFSGLLVNLTTIASWLSWLQYFSIPRYGFTALQHNEFLGQNFCPGLNATGNNPCNYATCTGEEYLVKQGIDLSPWGLWKNHVALACMIVIFLTIAYLKLLFLKKYS"}}, "data": [{"variants_of": "B1", "conditions": "with ubc_human UBC", "values": [{"variant": "N596Q", "effect of a mutation on the interaction": "increasing interaction"}]}]}
